Test results published in US20220153832A1 (PIONYR IMMUNOTHERAPEUTICS, published 2022).

T1: Human Macrophage Receptor with Collagenous Structure (MARCO), full length, on cells (human, UniProt Q9UEW3 1-520)
T1 construct: the cell type is named under assay; also called huMARCO; HuMARCO
T1 sequence: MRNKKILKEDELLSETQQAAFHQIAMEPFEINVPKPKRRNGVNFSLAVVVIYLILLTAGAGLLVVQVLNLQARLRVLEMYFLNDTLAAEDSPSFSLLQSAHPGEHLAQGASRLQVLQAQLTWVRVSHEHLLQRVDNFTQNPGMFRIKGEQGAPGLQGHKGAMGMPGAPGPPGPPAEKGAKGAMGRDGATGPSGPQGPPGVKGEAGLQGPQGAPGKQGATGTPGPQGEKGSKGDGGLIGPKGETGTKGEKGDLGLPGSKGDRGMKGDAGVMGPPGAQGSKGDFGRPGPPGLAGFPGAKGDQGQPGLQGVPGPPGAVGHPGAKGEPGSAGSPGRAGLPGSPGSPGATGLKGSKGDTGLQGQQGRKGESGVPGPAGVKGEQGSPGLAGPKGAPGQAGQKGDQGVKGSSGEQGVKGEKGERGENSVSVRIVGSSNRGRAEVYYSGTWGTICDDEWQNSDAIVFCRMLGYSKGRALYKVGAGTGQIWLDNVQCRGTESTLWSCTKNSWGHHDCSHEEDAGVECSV

T2: human MSR1 (R&D Systems) (human, UniProt P21757 77-451, limits assumed)
T2 construct: Related scavenger receptor used as specificity control; also called MSRI
T2 sequence (looked up): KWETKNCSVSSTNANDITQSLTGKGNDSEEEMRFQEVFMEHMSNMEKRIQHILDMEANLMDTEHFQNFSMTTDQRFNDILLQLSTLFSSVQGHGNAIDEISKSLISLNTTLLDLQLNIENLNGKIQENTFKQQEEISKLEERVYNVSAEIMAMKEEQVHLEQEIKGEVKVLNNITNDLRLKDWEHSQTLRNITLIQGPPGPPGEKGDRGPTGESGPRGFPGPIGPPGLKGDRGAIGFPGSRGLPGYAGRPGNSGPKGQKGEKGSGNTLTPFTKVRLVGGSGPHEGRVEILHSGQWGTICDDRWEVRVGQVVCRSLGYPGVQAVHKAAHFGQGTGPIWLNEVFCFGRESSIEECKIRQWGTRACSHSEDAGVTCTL

T3: human MARCO (R&D biosystems), recombinant, coated in the LDL competition assay (human, UniProt Q9UEW3 70-520, limits assumed)
T3 construct: Bought protein
T3 sequence (looked up): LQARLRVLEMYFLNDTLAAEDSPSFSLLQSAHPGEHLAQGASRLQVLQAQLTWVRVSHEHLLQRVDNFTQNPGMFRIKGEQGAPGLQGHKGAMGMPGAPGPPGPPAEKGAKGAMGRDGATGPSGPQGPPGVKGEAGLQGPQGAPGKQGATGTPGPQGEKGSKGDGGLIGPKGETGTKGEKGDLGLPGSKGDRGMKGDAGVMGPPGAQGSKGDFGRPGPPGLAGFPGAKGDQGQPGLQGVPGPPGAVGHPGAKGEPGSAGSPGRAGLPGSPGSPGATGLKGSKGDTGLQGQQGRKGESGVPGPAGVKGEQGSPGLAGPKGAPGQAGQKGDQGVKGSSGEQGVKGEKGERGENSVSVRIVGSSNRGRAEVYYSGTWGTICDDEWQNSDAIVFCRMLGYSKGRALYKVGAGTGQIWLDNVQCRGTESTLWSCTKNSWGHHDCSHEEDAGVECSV

B1: PI-HX-3031 (antibody)
heavy: QVQLKESGPGLVQPSQTLSLTCTVSGFSLTSYHVSWVRQPPGKGLEWMGAIWTGGSIAYNSLLKSRLSISRDTSKSQVFLKMNSLQTEDTATYYCARDLSDYYSSYTSFDYWGQGVMVTVSTAETTAPSVYPLAPGTALKSNSMVTLGCLVKGYFPEPVTVTWNSGALSSGVHTFPAVLQSGLYTLTSSVTVPSSTWSSQAVTCNVAHPASSTKVDKKIVPRECNPCGCTGSEVSSVFIFPPKTKDVLTITLTPKVTCVVVDISQNDPEVRFSWFIDDVEVHTAQTHAPEKQSNSTLRSVSELPIVHRDWLNGKTFKCKVNSGAFPAPIEKSISKPEGTPRGPQVYTMAPPKEEMTQSQVSITCMVKGFYPPDIYTEWKMNGQPQENYKNTPPTMDTDGSYFLYSKLNVKKETWQQGNTFTCSVLHEGLHNHHTEKSLSHSP
light: DIQMTQSPASLSTSLGETVSIECLASEGISNDLAWYQQKSGKSPQLLIYAASRLQDGVPSRFSGSGSGTRYSLKISGMQPEDEADYFCQQSYKYPLTFGSGTKLEIKRADAAPTVSIFPPSTEQLATGGASVVCLMNNFYPRDISVKWKIDGTERRDGVLDSVTDQDSKDSTYSMSSTLSLTKADYESHNLYTCEVVHKTSSSPVVKSFNRNEC
notes: Parental rat hybridoma, rat IgG2a
B2: PI-HX-3061 (antibody, rat IgG2a)
heavy: EVQLVESGGGLVQPGSSLKLSCVASKFTFSNYGMNWIRQAPKKGLEWIALIYYNSNNKYYADSVKGRFTISRDNSKNTLYLEMNSLRSEDTAMYYCAKSLTGGSDYFDSWGQGVMVTVSSAETTAPSVYPLAPGTALKSNSMVTLGCLVKGYFPEPVTVTWNSGALSSGVHTFPAVLQSGLYTLTSSVTVPSSTWPSQTVTCNVAHPASSTKVDKKIVPRNCGGDCKPCICTGSEVSSVFIFPPKPKDVLTITLTPKVTCVVVDISQDDPEVHFSWFVDDVEVHTAQTRPPEEQFNSTFRSVSELPILHQDWLNGRTFRCKVTSAAFPSPIEKTISKPEGRTQVPHVYTMSPTKEEMTQNEVSITCMVKGFYPPDIYVEWQMNGQPQENYKNTPPTMDTDGSYFLYSKLNVKKEKWQQGNTFTCSVLHEGLHNHHTEKSLSHSP
light: DVQMTQSPSYLAASPGESVSISCKASKSIGTFLAWYQEKPEKTNKLLIYSGSTLQSGTPSRFSGSGSGTDFTLTIRNLEPEDFAVYYCQQHDEYPFTFGSGTKLEIKRADAAPTVSIFPPSTEQLATGGASVVCLMNNFYPRDISVKWKIDGTERRDGVLDSVTDQDSKDSTYSMSSTLSLTKADYESHNLYTCEVVHKTSSSPVVKSFNRNEC
notes: Parental rat hybridoma, rat IgG2a; cross reactive with human and mouse MARCO

Key:
[1] = target: T1, Human Macrophage Receptor with …; assay: flow cytometry, 293T (HuMARCO)
Method: Supernatants were removed and cell pellets were resuspended in Ca²⁺+ and Mg²⁺+ Dulbecco's phosphate-buffered saline (D-PBS) at 1×10⁶ cells/ml. 100,000 cells/well were plated onto U-bottom 96-well plates for staining and all centrifugation steps were performed at 1500 rpm at 4° C. for 5 min and samples were kept protected from light throughout the protocol. Cells were pelleted and resuspended in 100 μl of Zombie NIR viability dye (BioLegend) prepared by diluting Zombie NIR dimethyl sulfoxide (DMSO) stock 1000-fold in D-PBS. […] Flow cytometry data were analyzed using FlowJo software (version 10.6.1) and data were processed and further analyzed in Microsoft Excel and GraphPad Prism software (version 8). Half-maximal effective concentrations (EC₅₀) were calculated based on geometric mean fluorescence intensities (gMFI). In case when the plates were not able to be analyzed on the cytometer, cells were pelleted after the washes and fixed in 100 μl of 2% paraformaldehyde (PFA), prepared by diluting the 16% (w/v) stock (Thermo Fisher) in DPBS, for 15 min at RT. […]

human MSR1 (R&D Systems) = target: T2, human MSR1 (R&D Systems); assay: ELISA on MSR1
Procedure, shortened: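 Cross-reactivity with human MSR1 (R&D Systems) was tested by ELISA. Maxisorp plates were coated overnight with 0.1 ug/well protein in DPBS with Ca2+ and Mg2+, then blocked with PBS/Ca2+/2% FBS. Hybridoma supernatants were added 1:1 in that buffer for 1 hour at room temperature. Detection used HRP-conjugated anti-rat IgG for 1 hr, then TMB and A450.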

[2] = target: T3, human MARCO (R&D biosystems), …; assay: LDL competition on coated human MARCO (MSD), competitor biotinylated hLDL
Method: A high-binding, 96-well MSD plate was coated with 4 μg/ml mouse MARCO or 4 μg/ml human MARCO (R&D biosystems). After the plate was blocked with PBST and 5% BSA for an hour, titrated anti-mouse or anti-human MARCO antibodies were added to the plate and incubated for 30 minutes. Biotinylated hLDL (860 pM or 2 μg/ml) were added to the antibody, and the antibody/LDL mixture was incubated for an hour to allow the mixture to reach binding equilibrium. The plates were washed and bound biotinylated LDL was detected with Sulfo-tagged streptavidin that generates an electrocheminlumenscent signal when read buffer is added and electricity is applied to the electrodes in the MSD plate. IC50's were calculated using a 4-parameter curve fit in GraphPad Prism software.
The newly generated rat hybridoma anti-human MARCO antibodies were characterized as previously described. Neither antibody bound to MSR1. Binding kinetics were determined via Multi Cycle Kinetics analysis using the huMARCO antigen as previously described.

Row | Binder | EC50 [1] [nM] | binding result (human MSR1 (R&D Systems)) | EC50 [2] [nM]
1 | B1 | 0.56 | no binding | 6.2
2 | B2 | 0.49 | no binding | 8.2
